Patent US20250304625A1, “ARTICLES AND METHODS FOR INHIBITING METHIONINE AMINOPEPTIDASE ACTIVITY” (Vanderbilt University, priority 2022, published 2025)
Each block holds one molecule with its values, some of them ahead of it.

Experiments:
[1] = test system: TKPTS cells; experiment: TKPTS cell proliferation by CellTrace flow cytometry; format: cell-based, murine
Protocol: TKPTS cells were seeding at 2,000 to 4,000 cells per well of 24- or 12-well tissue culture treated multi-well plates and incubated overnight at 37° C. Cells were staining with CellTRACE violet (Invitrogen, C34557) as described by manufacturer's protocol. Briefly, CellTRACE solution was prepared in PBS at a 1:1,000 dilution, added to the cells, and cells were incubated for 20 min at 37° C. Cells were then washed two times in cell culture media supplemented with 7% FBS, and replaced with fresh cell culture media supplemented with desired chemical treatments (3 μM TPA, Sigma, 723134; 5 μg/ml TNP470, Sigma, T1455; or 50 nM Bengamide B, Santa cruz, sc-397521A). Stock solutions of drugs were prepared in ACS-grade DMSO (Fisher Scientific, D136). […] After three days of growth, cells were stained with MitoTracker far-red (Invitrogen, M22426; 1:2500 dilution for 20 min at 37° C.) and MitoSOX red (Molecular probes, M36008: 1,1000 for 20 min at 37° C.) following manufacture's protocols. Cells were washed with PBS, trypsinized, and transferred to Eppendorf tubes prior to fixation in 4% PFA (Alfa aesar, J61899). Cells were fixed for 20 min at room temperature, centrifuged at 200×g for 10 min and washed with PBS prior to resuspension in 300 μl FACS buffer (2% FBS, 0.02% sodium azide in PBS). All flow cytometry data were collected using a BD LSRII flow cytometer with FACSDIVA software and analyzed using FlowJo (FlowJo LLC). Samples were gated forward scatter height (FSC-H) by forward scatter area (FSC-A) and side scatter height (SSC-H) by side scatter area (SSC-A) to remove doublet populations. The singlet population was gated SSC-A by FSC-A to isolate live cells. The resulting cell population was then assessed for assay-specific fluorescent markers and the median fluorescence intensity (MFI) quantified.

[2] = test system: zebrafish larvae (WT and zng1^−/−); experiment: Zebrafish larval survival under Metap inhibitor immersion; format: in vivo
Protocol: (§1) For all experiments larval zebrafish were bred naturally and collected into embryo media and were maintained at 28° C. on a 14/10 h light/dark cycle for duration of experiments. For survival experiments, zebrafish larvae were split into even densities into 6 or 12 multi-well plates in 5 mL or 1 mL embryo media respectively at 3 dpf. Stock solutions of METAP2 inhibitor TNP-470 (Sigma, T1455) and METAP1/2 inhibitor Bengamide B (Santa cruz, sc-397521A) were prepared in ACS-grade DMSO (Fisher Scientific, D136) and TPEN (Sigma, P4413) was prepared in ethanol and stored at −20° C. TNP-470, Bengamide B, and/or TPEN were applied into embryo media as well as a DMSO and/or ethanol vehicle controls at 3 dpf. Zebrafish survival was monitored daily until 6 dpf and all moribund or dead animals were removed. For qPCR experiments, larvae were split at 3 dpf into groups of 20-30 larvae in 20 mL of embryo media supplemented either 20 μM of TPEN or ethanol vehicle control. For imaging experiments, 6 dpf zebrafish larvae treated with 500 nM to 1 μM of Bengamide B or vehicle control were imaged by a Leica Thunder M205FCA stereomicroscope with a Leica DFC9000 GT camera.

[3] = test system: zebrafish larvae (WT, zng1 mutant, metap1 mutant); experiment: Zebrafish larval morphometry and gross pathology imaging; format: in vivo
Protocol: as §1

[4] = molecular target: T1, murine METAP1 (Mus musculus, UniProt Q8BP48); experiment: Murine ZNG1 activation of METAP1 assay (Met release from MAHAIHY); format: biochemical
T1 construct: final preparations of full-length METAP1 utilized in in vitro experiments in this study were purified, stripped of metal; 6xHis (N, cleaved yes); SUMO (N, cleaved yes); made in house; host or cells: E. coli BL21(DE3)
Protocol: Methionine aminopeptidase activity was evaluated by quantifying the release of Met from the heptapeptide MAHAIHY (Genscript) as adapted from (Kabir-ud-Din, 2003). Reactions were conducted at 25° C. in 25 mM HEPES pH 7.4, 150 mM NaCl, 2 mM TCEP and consisted of 20 nM murine METAP1 with 0, 1, or 2 molar equivalents of Zn. Reactions were initiated with the addition of varying concentrations of MAHAIHY peptide. 50 μL aliquots were taken every 30 sec from 30-150 sec and the reaction was quenched with the addition of 10 μL glacial acetic acid (Supelco, Sigma-Aldrich). 60 μL of 4% w/v ninhydrin (Sigma-Aldrich) in 100% ACN was added to each quenched reaction and incubated at 37° C. for 1 h to detect free Met. The absorbance at 570 nm was measured and the cleaved Met concentration was determined from a standard curve of 10-500 μM Met. All data are reported as the average of triplicate measurements from each evaluated experimental condition. Midpoint and completed reactions were additionally analyzed by LC-ESI-MS to confirm the generation of the expected AHAIHY cleaved peptide product (FIG. 11 I).
Activation assays were performed in 25 mM HEPES pH 7.4, 150 mM KCl, 2 mM MgCl2, 2 mM TCEP. 250 μM NTA was included where indicated. 10 μM Zn2METAP1 was incubated with 25 μM apo or ZnZNG1 (ZNG1 loaded with 0.9 eq, 22.5 μM, Zn) at 37° C. for 1 h. Reactions were diluted 500-fold in 25 mM HEPES pH 7.4, 150 mM NaCl, 2 mM TCEP to a final concentration of 20 nM METAP1 and methionine aminopeptidase activity was assayed as described above by initiating the enzymatic reaction with addition of 750 μM MAHAIHY. When using GTP, GDP, or GDPNP, the activation reaction contained 500 μM of the indicated nucleotide. A control activation reaction of Zn-NTA contained 22.5 μM and 250 μM NTA in reaction buffer.

[5] = molecular target: murine METAP1 1-59 (mouse, UniProt Q8BP48); experiment: intrinsic Trp (W45) fluorescence quenching, 1:1 model
Protocol: (§2) Peptide binding experiments were performed using an ISS PC1 spectrofluorometer at 25.0° C. Intrinsic Trp fluorescence was monitored using λₑₓ=292 nm nm and λₑₘ=350 nm, with quenching of the 350 nm emission maxima as aliquots of ZNG1 peptide were added. Different [METAP1_{1-59/1-79}] values were used for replicate experiments to better calculate the binding stoichiometry and analyzed globally. In a typical experiment, 5 μM METAP1_{1-59/1-79} in 2.5 mL were incubated for 10 min in chelexed buffer [25 mM HEPES (pH 7.4), 150 mM NaCl, and 2.5 mM TCEP], and aliquots of ZNG1 peptide were added. The equilibrium time was 2 min between subsequent additions of ZNG1 peptide. The peak emission intensities at 350 nm from triplicate experiments were globally fit to a 1:1 binding model using Dynafit (Kuzmic, 1996).
(§3) METAP1 binding of ZNG1 peptides was confirmed by monitoring quenching of W45 fluorescence in murine METAP1₁₋₅₉ and METAP1₁₋₇₉, upon addition of chemically synthesized N-terminal ZNG1 peptides from human, mouse, and zebrafish (FIGS. 2D,E and 9 I). […] Combined, these findings identify the specific regions of interaction between ZNG1 and METAP1.

[6] = molecular target: murine METAP1 1-79 (mouse, UniProt Q8BP48); experiment: as above
Protocol: as §2, §3

[7] = molecular target: T2, zebrafish Metap1 (Danio rerio, UniProt Q4QRK0); experiment: Zebrafish Metap1 methionine aminopeptidase activity (HPLC endpoint); format: biochemical; details: 1 μM Dr Zng1 and 1 μM Metap1, 100 μM MAHAIHY
T2 construct: Full-length zebrafish metap1 was amplified from 6 dpf whole larval cDNA and cloned into pLM302; 6xHis (N); MBP (N); made in house; host or cells: E. coli BL21(DE3)
Protocol: A single endpoint assay was used for these experiments. Reaction buffer (20 mM HEPES (pH 7.5), 150 mM NaCl) was chelex treated overnight at 4° C. 1 μM solutions of zebrafish Metap1 and Zng1 were made in reaction buffer. To strip Zn from the METAP1 active site, 3 μM of TPEN was incubated with 1 μM METAP1 at 4° C. for 1 h. To prepare holo-Zng1 (Zn bound), Zng1 was incubated with 10 μM of ZnCl2 for 1 h at 4° C. As a control, Metap1 was incubated with reaction buffer alone. Following the 1 h incubation, Zng1 and Metap1 were washed four times with chelex-treated reaction buffer using protein concentration columns (Amicon Ultra, UFC500396). After washes, proteins were mixed and incubated at 37° C. for 30 min. Following incubation, 100 μM of the synthetic peptide MAHAIHY (Genscript) was added to reactions and incubated for 90 min at 37° C. Reactions were stopped by the addition of a final concentration of 2% trifluoroacetic acid and samples were centrifuged at max speed for 5 min. […]
Twenty μL of each sample and standard was analyzed on an Agilent 1260 Infinity II system. […] MAHAIHY and AHAIHY were detected using absorbance at 280 nm, and retention times were confirmed using each standard. Methionine aminopeptidase relative activity was determined by calculating the percent of MAHAIHY converted to AHAIHY using the AUC values at 280 nm for each peptide.

[8] = 10 μM Zn2METAP1, 25 μM ZNG1, no nucleotide

Molecule: CCCCCCCCCCCCCC(=O)O[C@H]1CC[C@H](NC(=O)[C@H](OC)[C@H](O)[C@@H](O)[C@H](O)/C=C/C(C)C)C(=O)N(C)C1 [Bengamide B]
proliferation (CellTrace) ([1]; WT TKPTS cells, 50 nM Bengamide B): reduced cellular proliferation | survival ([2]; WT control larvae, 1 μM inhibitor, three days of treatment): remained viable | lethality ([2]; zng1 mutant larvae, 1 μM inhibitor, three days of treatment): 100% | viability ([2]; zng1 mutant larvae, co-treatment 500 nM Bengamide B and TPEN vs 500 nM Bengamide B alone): decreased viability | height at anterior anal fin (HAA) ([3]; WT larvae, 6 dpf, three days 500 nM vs vehicle): significantly reduced HAA | morphologic abnormalities (PCE, YSE, USB, CD) ([3]; metap1 mutant larvae vs WT controls at 6 dpf, 1 μM): significantly higher morphologic abnormalities

Molecule: CO[C@@H]1[C@H](OC(=O)NC(=O)CCl)CC[C@]2(CO2)[C@H]1[C@@]1(C)O[C@@H]1CC=C(C)C [TNP-470]
proliferation (CellTrace) ([1]; Zng1^−/− cells relative to WT, 5 μg/ml TNP-470): slowed proliferation | survival ([2]; zng1 mutant larvae compared to WT, Zn-deplete conditions (TPEN)): more pronounced | survival ([2]; zng1 mutant larvae compared to WT, immersion, three days): decreased survival

activation of Zn2METAP1 [4, 8]: no activation
Molecule: ApoZNG1: recombinant murine ZNG1 devoid of bound metal

Kd [5]: 100 nM | Kd [6]: 100 nM
Molecule: Hs ZNG1 N-terminal peptide

Molecule: Zebrafish Zng1: recombinant zebrafish Zng1, Zn bound (holo-Zng1)
apo-Metap1 activity [7]: stimulates

activation of Zn2METAP1 ([4]; 250 μM NTA, GDPNP): no effect | activation of Zn2METAP1 ([4]; 250 μM NTA, GTP, above that of NTA-bound Zn): significant activation | activation of Zn2METAP1 ([4]; 250 μM NTA, presence and absence of GDP): only minor activation | activation of Zn4METAP1 ([4]; fully metalated Zn4METAP1, absence of nucleotide): no activation | activation of Zn2METAP1 ([4]; in the presence of 500 μM GDP): some ZnZNG1-dependent activation | activation of Zn2METAP1 ([4]; in the presence of 500 μM GDPNP): no activation | activation of Zn2METAP1 ([4]; in the presence of 500 μM GTP): nearly fully activates
Molecule: ZnZNG1: recombinant murine ZNG1 loaded with 0.9 eq Zn at the high-affinity site
activation of Zn2METAP1 [4, 8]: recovers small amounts of Zn4METAP1 activity

Kd [5]: ~100 nM | Kd [6]: ~100 nM
Molecule: Ac-AEEEYAEDCPELVPIETKNQE-NH2 [Mm ZNG1 N-terminal peptide]

Kd [5]: ~100 nM | Kd [6]: ~100 nM
Molecule: Ac-MEDEDECPELVPIKEKPSGP-NH2 [Dr ZNG1 N-terminal peptide]
